Measurements published in article PMC10344899, “ZmmiR169q/ZmNF-YA8 is a module that homeostatically regulates primary root growth and salt tolerance in maize”.

Molecular target: T1, ZmNF-YA8 (Zea mays, UniProt B6SPD7 2-301)
T1 sequence: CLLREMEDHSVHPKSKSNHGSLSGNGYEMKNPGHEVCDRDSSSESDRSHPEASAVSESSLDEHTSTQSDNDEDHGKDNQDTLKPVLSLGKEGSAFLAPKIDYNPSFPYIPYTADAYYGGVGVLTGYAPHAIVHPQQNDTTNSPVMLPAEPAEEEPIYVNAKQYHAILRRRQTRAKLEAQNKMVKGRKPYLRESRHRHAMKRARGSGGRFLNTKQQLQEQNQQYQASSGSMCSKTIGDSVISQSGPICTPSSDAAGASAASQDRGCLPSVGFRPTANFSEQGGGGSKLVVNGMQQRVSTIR
Assay: EMSA; shifted band reduced by 20x unlabelled probe and eliminated at 40x; 20 min incubation; nondenaturing 4% polyacrylamide gel, 0.5x TBE; LightShift Chemiluminescent EMSA kit; binding buffer, salt, pH and temperature not stated
Settings: protein: recombinant; tags: His (pET28a); blunt

B1: ZmERF1B promoter P1 CCAAT-box EMSA probe (dsDNA)
DNA 1: GGCGCGCATTCGCCTCGCCTCCAATTCCCATCCATCACTAACTTG
DNA 2: CAAGTTAGTGATGGATGGGAATTGGAGGCGAGGCGAATGCGCGCC
binding result: binds
